Numbering of substitutions follows the chain as printed. Names and notes keep the numbering of the source.
B1: S247P: mutated TriA variant of SEQ ID NO: 2 (protein)
chain: MQTLSIQHGTLVTMDQYRRVLGDSWVHVQDGRIVALGVHAESVPPPADRVIDARGKVVLPGFINAHTHVNQILLRGGPSHGRQLYDWLFNVLYPGQKAMRPEDVAVAVRLYCAEAVRSGITTINDNADSAIYPGNIEAAMAVYGEVGVRVVYARMFFDRMDGRIQGYVDALKARSPQVELCSIMEETAVAKDRITALSDQYHGTAGGRISVWPAPAITPAVTVEGMRWAQAFARDRAVMWTLHMAEPDHDERLHWMSPAEYMECYGLLDERLQVAHCVYFDRKDVRLLHRHNVKVASQVVSNAYLGSGVAPVPEMVERGMAVGIGTDDGNCNDSVNMIGDMKFMAHIHRAVHRDADVLTPEKILEMATIDGARSLGMDHEIGSIETGKRADLILLDLRHPQTTPHHHLAATIVFQAYGNEVDTVLIDGNVVMENRRLSFLPPERELAFLEEAQSRATAILQRANMVANPAWRSL
modifications: Pseudomonas
B2: H249I: mutated TriA variant of SEQ ID NO: 2 (protein)
chain: B1 chain with P247S, H249I
modifications: Pseudomonas
B3: D250E: mutated TriA variant of SEQ ID NO: 2 (protein)
chain: B1 chain with P247S, D250E
modifications: Pseudomonas
B4: D250N: mutated TriA variant of SEQ ID NO: 2 (protein)
chain: B1 chain with P247S, D250N
modifications: Pseudomonas
B5: H249V: mutated TriA variant of SEQ ID NO: 2 (protein)
chain: B1 chain with P247S, H249V
modifications: Pseudomonas
B6: H249N: mutated TriA variant of SEQ ID NO: 2 (protein)
chain: B1 chain with P247S, H249N
modifications: Pseudomonas
B7: D248G: mutated TriA variant of SEQ ID NO: 2 (protein)
chain: B1 chain with P247S, D248G
modifications: Pseudomonas
B8: E251D: mutated TriA variant of SEQ ID NO: 2 (protein)
chain: B1 chain with P247S, E251D
modifications: Pseudomonas
B9: D248N: mutated TriA variant of SEQ ID NO: 2 (protein)
chain: B1 chain with P247S, D248N
modifications: Pseudomonas
B10: N70V: mutated TriA variant of SEQ ID NO: 2 (protein)
chain: B1 chain with N70V, P247S
modifications: Pseudomonas
B11: D248S: mutated TriA variant of SEQ ID NO: 2 (protein)
chain: B1 chain with P247S, D248S
modifications: Pseudomonas

Format: biochemical
Settings: pH 7.2
Summary of the method: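 % degradation measured against empty-vector control by UPLC-HR-MS, with product identity confirmed by exact mass and MS-MS. Conditions: 25 mM sodium phosphate pH 7.2, 30 °C, substrates at 1–10 nM. Enzyme source: TriA-expressing E. coli resting cells incubated with azines, melamine or atrazine.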

Molecule	Degradation in % of 6-cyclopentyl-N4-(2,3,4,5,6-pentafluorophenyl)-1,3,5-triazine-2,4-diamine	Degradation in % of Melamine
B1	0%	3%
B2	1%	100%
B3	2%	3%
B4	1%	3%
B5	0%	100%
B6	0%	1%
B7	0%	7%
B8	35%	100%
B9	4%	11%
B10	4%	0%
B11	3%	20%

From patent US11499162B2, “Plants having increased tolerance to herbicides” (BASF SE, priority 2016, dated 2022)
